We go through three molecules from article PMC3391209, “A Lon-Like Protease with No ATP-Powered Unfolding Activity” (PLoS ONE, 2012).

The target in one assay is T1, MtaLonC (Meiothermus taiwanensis, UniProt C9DRU9).
T1 construct: gene lon_2; full-length, 719 residues, C-terminal His tag (pET21a), expressed in E. coli BL21(DE3); homohexamer, monomer 79 kDa
T1 sequence (C9DRU9 1-719): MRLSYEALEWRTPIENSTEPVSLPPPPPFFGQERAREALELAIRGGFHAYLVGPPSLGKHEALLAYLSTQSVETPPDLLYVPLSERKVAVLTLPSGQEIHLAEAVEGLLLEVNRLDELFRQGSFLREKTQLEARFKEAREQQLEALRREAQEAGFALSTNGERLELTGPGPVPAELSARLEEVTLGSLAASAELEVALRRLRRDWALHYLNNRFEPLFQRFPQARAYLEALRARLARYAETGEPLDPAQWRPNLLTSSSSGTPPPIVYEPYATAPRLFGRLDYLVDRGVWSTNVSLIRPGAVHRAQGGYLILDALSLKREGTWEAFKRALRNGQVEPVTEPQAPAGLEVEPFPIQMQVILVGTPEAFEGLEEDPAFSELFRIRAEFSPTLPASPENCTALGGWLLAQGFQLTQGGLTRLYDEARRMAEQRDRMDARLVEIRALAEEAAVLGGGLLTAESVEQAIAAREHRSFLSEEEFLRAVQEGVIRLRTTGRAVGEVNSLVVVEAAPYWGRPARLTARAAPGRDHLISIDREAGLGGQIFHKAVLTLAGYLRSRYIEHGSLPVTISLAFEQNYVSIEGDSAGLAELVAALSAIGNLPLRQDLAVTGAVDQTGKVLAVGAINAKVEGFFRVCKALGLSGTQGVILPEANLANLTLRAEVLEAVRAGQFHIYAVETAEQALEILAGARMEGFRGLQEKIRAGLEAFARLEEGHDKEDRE
As to the kind of experiment: isothermal titration calorimetry, one-site fit. Format: binding. (Isothermal titration calorimetry measures the heat released or taken up as one component is titrated into another.)

In a further assay the target is T2, EcLonA (Escherichia coli, UniProt P0A9M0).
T2 construct: gene lon; recombinant, expressed and purified as described previously
T2 sequence (P0A9M0 2-784): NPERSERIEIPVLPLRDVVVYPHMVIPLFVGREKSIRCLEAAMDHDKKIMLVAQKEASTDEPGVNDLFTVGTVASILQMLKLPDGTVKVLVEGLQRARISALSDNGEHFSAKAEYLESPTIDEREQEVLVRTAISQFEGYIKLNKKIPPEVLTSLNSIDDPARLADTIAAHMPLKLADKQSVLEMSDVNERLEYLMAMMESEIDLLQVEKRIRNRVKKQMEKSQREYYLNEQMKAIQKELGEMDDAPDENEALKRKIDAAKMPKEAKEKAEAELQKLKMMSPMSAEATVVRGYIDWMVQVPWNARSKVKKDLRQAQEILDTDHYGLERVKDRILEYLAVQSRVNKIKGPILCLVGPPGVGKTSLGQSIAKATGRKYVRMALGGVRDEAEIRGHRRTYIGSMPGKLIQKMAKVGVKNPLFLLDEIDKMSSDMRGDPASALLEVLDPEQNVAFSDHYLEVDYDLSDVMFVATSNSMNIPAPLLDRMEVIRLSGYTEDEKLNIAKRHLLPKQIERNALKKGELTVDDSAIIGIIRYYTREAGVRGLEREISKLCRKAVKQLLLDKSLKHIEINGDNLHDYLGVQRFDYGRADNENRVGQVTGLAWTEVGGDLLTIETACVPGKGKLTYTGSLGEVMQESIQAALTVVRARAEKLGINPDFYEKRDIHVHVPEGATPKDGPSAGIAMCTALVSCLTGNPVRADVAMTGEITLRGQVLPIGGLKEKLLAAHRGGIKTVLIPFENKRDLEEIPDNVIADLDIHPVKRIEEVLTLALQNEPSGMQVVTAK
The assay is described as follows: […]-NMR of phosphate release; colorimetric ATPase assay. Format: biochemical. The note with it: 37 °C, 50 mM Tris-HCl pH 8.0, 10 mM MgCl2, 10 mM ATP (NMR); positive control.

For assay [1], the target named is Lon-like protease MtaLonC from Meiothermus taiwanensis WR-220 (Meiothermus taiwanensis WR-220). As to the kind of experiment: SEC; Superose 6; 1 mg/mL, pH 5-8; hexamer formation not dependent on Mg2+ or ATP; aggregates in the void volume when concentrated.
The target is the same in assay [2]. The assay is described as follows: negative-stain electron microscopy; about 50 µg/ml MtaLonC, 2% uranyl acetate, class averages; hexamer and void-volume fractions from Superose 6.
For assay [3] the target is unchanged. As to the kind of experiment: AUC; sedimentation equilibrium (4,000-6,000 r.p.m.) and sedimentation velocity (20,000 rpm), 20°C, 20 mM sodium citrate pH 5.5, 100 mM NaCl, 1 mM DTT, 7.8 µM protein.

For `Nc1ncnc2c1ncn2[C@@H]1O[C@H](CO[P@](=O)(O)O[P@](=O)(O)O[P@@](=O)(O)S)[C@@H](O)[C@H]1O` [ATPγS], the affinity on MtaLonC, expressed as Kd, was 7.8 µM.
Consider `Nc1ncnc2c1ncn2[C@@H]1O[C@H](COP(=O)(O)OP(=O)(O)OP(=O)(O)O)[C@@H](O)[C@H]1O` [ATP], for which the “31P-NMR of phosphate release; colorimetric ATPase assay” value at EcLonA was “incubation of an excess amount of ATP with EcLonA resulted in hydrolysis of ATP”.
Turning to “Lon-like protease MtaLonC from Meiothermus taiwanensis WR-220 (enzyme)”, the stoichiometry N in assay [1], in assay [2] and in assay [3] was 6 in each case.

As usually defined, the Kd is the constant that tells how readily two partners part at equilibrium. A word on the stoichiometry N: it is a count of units in the complex or per binding partner.
